# Laboratory results: IntAct's records for PubMed 16938345
# B1: Linker for activation of T-cells family member 1 (Homo sapiens), O43561 (parent)
# chain: MEEAILVPCVLGLLLLPILAMLMALCVHCHRLPGSYDSTSSDSLYPRGIQFKRPHTVAPWPPAYPPVTSYPPLSQPDLLPIPRSPQPLGGSHRTPSSRRDSDGANSVASYENEGASGIRGAQAGWGVWGPSWTRLTPVSLPPEPACEDADEDEDDYHNPGYLVVLPDSTPATSTAAPSAPALSTPGIRDSAFSMESIDDYVNVPESGESAEASLDGSREYVNVSQELHPGAAKTEPAALSSQEAEEVEEEGAPDYENLQELN
# Variants of: B1
# Conditions: with grb2_human GRB2, P62993
row,effect of a mutation on the interaction,Variant
1,decreasing interaction,Y200F;Y220F
